Assay results from PMC4900634 (PLoS Biology, 2016).
Positions count from the first letter of the chain named. In names and notes the source's numbering stands.

B1: A114C Ec-MscL (Escherichia coli mechanosensitive channel of large conductance, cysteine mutant) (natural protein, UniProt P0A742 1-136, looked up)
chain: MSIIKEFREFAMRGNVVDLAVGVIIGAAFGKIVSSLVADIIMPPLGLLIGGIDFKQFAVTLRDAQGDIPAVVMHYGVFIQNVFDFLIVAFAIFMAIKLINKLNRKKEEPAAAPCPTKEEVLLTEIRDLLKEQNNRS
notes: MscL, mechanosensitive channel of large conductance, Escherichia coli (Ec-MscL); single cysteine mutant; source: E. coli PB104 (pB10) or PB116 (pET21a), purified (Talon resin, in DM); not shown: His6, C-terminal, kept
B2: K117C Ec-MscL (Escherichia coli mechanosensitive channel of large conductance, cysteine mutant) (natural protein, UniProt P0A742 1-136, looked up)
chain: B1 chain with C114A, K117C
notes: as for B1
B3: T116C Ec-MscL (Escherichia coli mechanosensitive channel of large conductance, cysteine mutant) (natural protein, UniProt P0A742 1-136, looked up)
chain: B1 chain with C114A, T116C
notes: as for B1

Tests used:
[1] = molecular target: T1, Ec-MscL (mechanosensitive channel of large conductance) (Escherichia coli, UniProt P0A742, K55T); assay: MicroScale Thermophoresis, labeled purified protein in DDM (main text prints […]); format: binding
T1 construct: recombinant, detergent-solubilized channel
T1 sequence (P0A742 whole entry K55T): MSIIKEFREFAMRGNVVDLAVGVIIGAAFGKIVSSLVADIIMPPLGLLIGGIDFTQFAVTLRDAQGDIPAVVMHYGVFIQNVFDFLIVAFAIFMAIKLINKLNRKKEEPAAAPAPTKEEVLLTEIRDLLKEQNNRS

[2] = molecular target: T2, Ec-MscL (mechanosensitive channel of large conductance) (Escherichia coli, UniProt P0A742); assay: MicroScale Thermophoresis; supported by patch clamp activation at […] DHS and MTS-PEG5000 competition on cysteine mutants; format: binding
T2 construct: wild type, recombinant, detergent-solubilized channel
T2 sequence (P0A742 whole entry): as the sequence (P0A742 whole entry K55T) above, with T55K counted along it

[3] = molecular target: the molecule itself; assay: non-reducing SDS-PAGE with Western blot (dimer band); purified His-tagged cysteine mutants, 5 ug in 50 mM KPi pH 7.5, 150 mM NaCl, 4 mM DM, 22°C; nonreducing sample buffer with iodoacetamide; blot with Penta.His; samples of the MTS-PEG5000 versus DHS competition experiment, mock lanes included

Molecule	Kd [1] [mM]	Kd [2] [mM]	binding result [3]
CN[C@@H]1[C@H](O[C@H]2[C@H](O[C@H]3[C@H](O)[C@@H](O)[C@H](NC(=N)N)[C@@H](O)[C@@H]3NC(=N)N)O[C@@H](C)[C@]2(O)CO)O[C@@H](CO)[C@H](O)[C@H]1O [DHS, dihydrostreptomycin]	0.601 ± 0.0551	9.81 ± 0.13	–
B1	–	–	binds
B2	–	–	binds
B3	–	–	binds
